Assay [1] deals with T1, human CD28 (human, UniProt P10747 19-152, limits assumed).
T1 construct: also called Cluster of Differentiation 28; Tp44
The experiment in a line: method not stated; Monovalent CD28 KD, table headed 1A7[CD28] H1.14_L1.71 (aka 37 nM).

The target of assay [2] is T1, human CD28. The experiment in a line: KD of its CD28 binding domain as quoted in the text.
Assay [3] deals with T2, human mesothelin (MSLN) (human, UniProt Q13421 296-580, limits assumed).
T2 construct: Antigen of the Octet KD values
The experiment in a line: KD of its MSLN binding domain as quoted in the text.

In a further assay the target is T3, CD3.
T3 chain 1: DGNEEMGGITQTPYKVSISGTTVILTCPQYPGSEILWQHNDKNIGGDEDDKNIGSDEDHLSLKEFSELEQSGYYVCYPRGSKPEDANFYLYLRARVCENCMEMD
T3 chain 2: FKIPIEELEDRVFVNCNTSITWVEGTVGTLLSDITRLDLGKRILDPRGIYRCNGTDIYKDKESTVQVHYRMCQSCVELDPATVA
Description: label in the legend box: nominal affinity of the CD3 binding domain; method not stated on the sheet.

The target of assay [4] is T2, human mesothelin (MSLN). The experiment in a line: KD quoted in the FIG. 25 legend; Octet (BLI) per FIGS. 20-21.
Assay [5] deals with T1, human CD28. Description: label in the legend box: nominal affinity of the CD28 binding domain (paragraph 422 calls such label values KD); method not stated on the sheet.
Assay [6] concerns the target T2, human mesothelin (MSLN). Description: label in the legend box: nominal affinity of the MSLN binding domain (paragraph 422 calls such label values KD); method not stated on the sheet.
In assay [7] the target is T2, human mesothelin (MSLN). The experiment in a line: KD quoted in the text; Octet (BLI) per FIGS. 20-21.

B1: XENP39553 (bispecific antibody)
heavy: QVQLVQSGAEVKKPGASVKVSCKASGYTFTSYWMHWVRQAPGQGLEWMGMIHPNSDNTIYYEKFQGRVTMTVDKSISTAYMELSRLRSDDTAVYYCAIIITPVVPKFDYWGQGTLVTVSSASTKGPSVFPLAPSSKSTSGGTAALGCLVKDYFPEPVTVSWNSGALTSGVHTFPAVLQSSGLYSLSSVVTVPSSSLGTQTYICNVNHKPSDTKVDKKVEPKSCDKTHTCPPCPAPPVAGPSVFLFPPKPKDTLMISRTPEVTCVVVDVKHEDPEVKFNWYVDGVEVHNAKTKPREEEYNSTYRVVSVLTVLHQDWLNGKEYKCKVSNKALPAPIEKTISKAKGQPREPQVYTLPPSREEMTKNQVSLTCDVSGFYPSDIAVEWESDGQPENNYKTTPPVLDSDGSFFLYSKLTVDKSRWEQGDVFSCSVLHEALHSHYTQKSLSLSPGK
scFv-Fc: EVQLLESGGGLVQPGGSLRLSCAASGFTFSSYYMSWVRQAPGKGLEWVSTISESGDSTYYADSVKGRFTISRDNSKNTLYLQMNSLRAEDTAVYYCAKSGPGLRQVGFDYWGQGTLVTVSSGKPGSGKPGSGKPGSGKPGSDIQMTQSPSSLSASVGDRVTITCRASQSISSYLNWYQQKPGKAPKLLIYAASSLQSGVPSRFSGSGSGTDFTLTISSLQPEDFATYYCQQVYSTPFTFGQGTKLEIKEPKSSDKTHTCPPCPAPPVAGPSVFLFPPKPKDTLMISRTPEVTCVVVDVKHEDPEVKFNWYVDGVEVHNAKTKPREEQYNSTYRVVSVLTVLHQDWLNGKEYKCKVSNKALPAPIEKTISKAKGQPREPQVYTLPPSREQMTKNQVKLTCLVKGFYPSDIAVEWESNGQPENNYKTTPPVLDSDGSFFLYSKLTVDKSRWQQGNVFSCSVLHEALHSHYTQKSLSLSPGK
light: DIVMTQSPDSLAVSLGERATINCKASHDVGTSVAWYQQKPGQSPKLLIYWASTRHTGVPDRFTGSGSGTDFTLTISSLQAEDVAVYFCQQYSSYPLTFGAGTKLEIKRTVAAPSVFIFPPSDEQLKSGTASVVCLLNNFYPREAKVQWKVDNALQSGNSQESVTEQDSKDSTYSLSSTLTLSKADYEKHKVYACEVTHQGLSSPVTKSFNRGEC
notes: also called MSLN (0.3 nM) x CD28 (37 nM) 1+1 Fab-scFv-Fc
Regarding B1, the Kd with human CD28 [1] was 60 nM; with human CD28 [2], 37 nM; with human mesothelin (MSLN) [3], 0.3 nM.

B2: XENP32947 (bispecific antibody)
chain 1: QVQLVQSGAEVKKPGASVKVSCKASGYTFTSYWMHWVRQAPGQGLEWMGWIHPNSDNTIYYEKFQGRVTMTVDKSISTAYMELSRLRSDDTAVYYCAIIITPVVPKFDYWGQGTLVTVSSASTKGPSVFPLAPSSKSTSGGTAALGCLVKDYFPEPVTVSWNSGALTSGVHTFPAVLQSSGLYSLSSVVTVPSSSLGTQTYICNVNHKPSDTKVDKKVEPKSCDKTHTCPPCPAPPVAGPSVFLFPPKPKDTLMISRTPEVTCVVVDVKHEDPEVKFNWYVDGVEVHNAKTKPREEEYNSTYRVVSVLTVLHQDWLNGKEYKCKVSNKALPAPIEKTISKAKGQPREPQVYTLPPSREEMTKNQVSLTCDVSGFYPSDIAVEWESDGQPENNYKTTPPVLDSDGSFFLYSKLTVDKSRWEQGDVFSCSVMHEALHNHYTQKSLSLSPGK
chain 2: QVQLVQSGAEVKKPGASVKVSCKASGYTFTSYWMHWVRQAPGQGLEWMGWIHPNSDNTIYYEKFQGRVTMTVDKSISTAYMELSRLRSDDTAVYYCAIIITPVVPKFDYWGQGTLVTVSSASTKGPSVFPLAPSSKSTSGGTAALGCLVKDYFPEPVTVSWNSGALTSGVHTFPAVLQSSGLYSLSSVVTVPSSSLGTQTYICNVNHKPSNTKVDKKVEPKSCGGGGSGGGGSQAVVTQEPSLTVSPGGTVTLTCGSSTGAVTTSNYANWVQQKPGKSPRGLIGGTNKRAPGVPARFSGSLLGGKAALTISGAQPEDEADYYCALWYSNHWVFGGGTKLTVLGKPGSGKPGSGKPGSGKPGSEVQLVESGGGLVQPGGSLRLSCAASGFTFSTYAMNWVRQAPGKGLEWVGRIRSKANNYATYYADSVKGRFTISRDDSKNTLYLQMNSLRAEDTAVYYCVRHGNFGDSYVSWFAYWGQGTLVTVSSGGGGSGGGGSKTHTCPPCPAPPVAGPSVFLFPPKPKDTLMISRTPEVTCVVVDVKHEDPEVKFNWYVDGVEVHNAKTKPREEQYNSTYRVVSVLTVLHQDWLNGKEYKCKVSNKALPAPIEKTISKAKGQPREPQVYTLPPSREQMTKNQVKLTCLVKGFYPSDIAVEWESNGQPENNYKTTPPVLDSDGSFFLYSKLTVDKSRWQQGNVFSCSVMHEALHNHYTQKSLSLSPGK
chain 3: DIVMTQSPDSLAVSLGERATINCKASHDVGTSVAWYQQKPGQSPKLLIYWASTRHTGVPDRFTGSGSGTDFTLTISSLQAEDVAVYFCQQYSSYPLTFGAGTKLEIKRTVAAPSVFIFPPSDEQLKSGTASVVCLLNNFYPREAKVQWKVDNALQSGNSQESVTEQDSKDSTYSLSSTLTLSKADYEKHKVYACEVTHQGLSSPVTKSFNRGEC
Take B2: the Kd came out at 30 nM with CD3 and 9.2 nM with human mesothelin (MSLN) [4].

B3: XENP39569 (bispecific antibody)
heavy: QVQLVQSGAEVKKPGASVKVSCKASGYTFTSYWMHWVRQAPGQGLEWMGWIHPNSDNTIYYEKFQGRVTMTVDKSISTAYMELSRLRSDDTAVYYCAIIITPVVPKFDYWGQGTLVTVSSASTKGPSVFPLAPSSKSTSGGTAALGCLVKDYFPEPVTVSWNSGALTSGVHTFPAVLQSSGLYSLSSVVTVPSSSLGTQTYICNVNHKPSDTKVDKKVEPKSCDKTHTCPPCPAPPVAGPSVFLFPPKPKDTLMISRTPEVTCVVVDVKHEDPEVKFNWYVDGVEVHNAKTKPREEEYNSTYRVVSVLTVLHQDWLNGKEYKCKVSNKALPAPIEKTISKAKGQPREPQVYTLPPSREEMTKNQVSLTCDVSGFYPSDIAVEWESDGQPENNYKTTPPVLDSDGSFFLYSKLTVDKSRWEQGDVFSCSVLHEALHSHYTQKSLSLSPGK
scFv-Fc: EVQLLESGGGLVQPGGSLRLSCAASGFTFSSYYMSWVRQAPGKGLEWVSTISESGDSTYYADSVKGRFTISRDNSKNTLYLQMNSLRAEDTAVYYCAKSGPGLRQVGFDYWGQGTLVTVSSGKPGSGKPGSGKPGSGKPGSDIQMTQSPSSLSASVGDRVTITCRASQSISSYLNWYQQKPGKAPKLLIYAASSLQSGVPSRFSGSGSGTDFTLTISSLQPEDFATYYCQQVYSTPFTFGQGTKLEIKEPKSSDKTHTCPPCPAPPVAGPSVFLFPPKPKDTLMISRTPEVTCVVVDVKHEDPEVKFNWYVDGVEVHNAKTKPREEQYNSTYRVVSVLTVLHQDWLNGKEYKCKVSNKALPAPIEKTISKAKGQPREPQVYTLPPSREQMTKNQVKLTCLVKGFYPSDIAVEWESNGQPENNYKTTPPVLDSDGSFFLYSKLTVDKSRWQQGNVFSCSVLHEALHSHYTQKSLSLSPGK
light: DIVMTQSPDSLAVSLGERATINCKASHDVGQSVAWYQQKPGQSPKLLIYWASTRHTGVPDRFTGSGSGTDFTLTISSLQAEDVAVYFCQQYSSYPLTFGAGTKLEIKRTVAAPSVFIFPPSDEQLKSGTASVVCLLNNFYPREAKVQWKVDNALQSGNSQESVTEQDSKDSTYSLSSTLTLSKADYEKHKVYACEVTHQGLSSPVTKSFNRGEC
notes: also called XENP39569 MSLN (90 nM) x CD28 (37 nM) 1+1
On to B3, for which the Kd in the assay with human CD28 [5] was determined as 37 nM; with human mesothelin (MSLN) [6], 90 nM.

B4: MESO-C H1_L1 (Fab, V domains shown)
VH: QVQLVQSGAEVKKPGASVKVSCKASGYTFTSYWMHWVRQAPGQGLEWMGMIHPNSDNTIYYEKFQGRVTMTVDKSISTAYMELSRLRSDDTAVYYCAIIITPVVPKFDYWGQGTLVTVSS
VL: DIVMTQSPDSLAVSLGERATINCKASHDVGTSVAWYQQKPGQSPKLLIYWASTRHTGVPDRFTGSGSGTDFTLTISSLQAEDVAVYFCQQYSSYPLTFGAGTKLEIK
In turn, B4 showed a Kd with human mesothelin (MSLN) [7] of 0.3 nM.

(Values after patent publication US20230340128A1 (Xencor, published 2023).)
